Several values for one entry are separate records, joined by “and”; a condition that tells them apart may be missing. Equal entries are not always repeated.
T1: "Non-linked" human IL-23 (human p40 coexpressed in 293T cells with human p19:FLAG-tag peptide) (human, UniProt P29460 23-328)
T1 sequence 1: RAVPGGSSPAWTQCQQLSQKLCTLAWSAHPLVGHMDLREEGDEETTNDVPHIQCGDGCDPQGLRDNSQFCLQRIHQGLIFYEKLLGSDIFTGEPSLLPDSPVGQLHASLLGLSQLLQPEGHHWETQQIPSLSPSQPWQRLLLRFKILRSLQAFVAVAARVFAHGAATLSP
T1 sequence 2: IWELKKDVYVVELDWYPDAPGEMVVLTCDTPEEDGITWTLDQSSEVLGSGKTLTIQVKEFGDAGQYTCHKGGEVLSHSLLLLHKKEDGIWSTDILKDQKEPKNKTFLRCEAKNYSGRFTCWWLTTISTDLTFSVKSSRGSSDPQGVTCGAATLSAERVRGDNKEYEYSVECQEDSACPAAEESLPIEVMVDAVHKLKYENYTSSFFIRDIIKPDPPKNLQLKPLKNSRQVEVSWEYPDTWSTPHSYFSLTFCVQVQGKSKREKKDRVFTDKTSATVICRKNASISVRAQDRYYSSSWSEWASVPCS

T2: non-tagged, non-linked native human IL-23p19/p40 coexpressed in SF9 cells (eBioscience CAT No. 34-8239) (human, UniProt P29460 23-328)
T2 sequence 1: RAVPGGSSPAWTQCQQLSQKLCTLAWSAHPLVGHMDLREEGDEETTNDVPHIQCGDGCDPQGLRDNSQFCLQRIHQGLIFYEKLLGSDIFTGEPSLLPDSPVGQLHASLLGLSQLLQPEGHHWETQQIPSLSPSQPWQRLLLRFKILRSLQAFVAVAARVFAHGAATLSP
T2 sequence 2: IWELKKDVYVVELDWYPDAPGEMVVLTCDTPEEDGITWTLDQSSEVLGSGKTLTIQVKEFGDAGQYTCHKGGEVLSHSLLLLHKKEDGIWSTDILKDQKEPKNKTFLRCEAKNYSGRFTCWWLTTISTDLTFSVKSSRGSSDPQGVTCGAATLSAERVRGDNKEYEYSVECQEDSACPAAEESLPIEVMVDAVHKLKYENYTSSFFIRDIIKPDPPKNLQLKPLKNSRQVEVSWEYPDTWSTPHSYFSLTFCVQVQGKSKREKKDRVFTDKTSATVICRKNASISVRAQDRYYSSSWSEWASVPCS

T3: human IL-23 (form not stated) (human, UniProt P29460 23-328)
T3 sequence 1: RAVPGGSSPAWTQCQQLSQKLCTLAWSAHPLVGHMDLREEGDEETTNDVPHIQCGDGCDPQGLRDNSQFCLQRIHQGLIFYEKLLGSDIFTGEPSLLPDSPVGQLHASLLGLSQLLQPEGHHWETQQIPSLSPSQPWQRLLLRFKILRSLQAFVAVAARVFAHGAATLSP
T3 sequence 2: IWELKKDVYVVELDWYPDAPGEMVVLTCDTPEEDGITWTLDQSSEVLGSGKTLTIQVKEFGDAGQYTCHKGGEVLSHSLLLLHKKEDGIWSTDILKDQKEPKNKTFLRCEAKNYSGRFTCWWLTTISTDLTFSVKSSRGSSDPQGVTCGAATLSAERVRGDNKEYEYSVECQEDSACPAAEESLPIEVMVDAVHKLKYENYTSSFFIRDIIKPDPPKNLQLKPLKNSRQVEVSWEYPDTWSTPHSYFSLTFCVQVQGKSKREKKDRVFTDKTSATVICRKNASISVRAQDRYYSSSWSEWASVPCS


Tests used:
[1] = target: T4, "Elastikine" human IL-23 (single chain FLAG-tag:GLU-tag:human p40:elasti-linker:human p19, expressed in 293T … (human, UniProt P29460 23-328)); experiment: KinExA, solution equilibrium
Description: (§1) The equilibrium dissociation constant (Kd) for anti human IL-23 antibodies is determined using the KinExA 3000 instrument. Sapidyne Instruments Inc., Boise Id., USA KinExA uses the principle of the Kinetic Exclusion Assay method based on measuring the concentration of uncomplexed antibody in a mixture of antibody, antigen and antibody-antigen complex. The concentration of free antibody is measured by exposing the mixture to a solid-phase immobilized antigen for a very brief period of time. In practice, this is accomplished by flowing the solution phase antigen-antibody mixture past antigen-coated particles trapped in a flow cell. Data generated by the instrument are analyzed using custom software. Equilibrium constants are calculated using a mathematical theory based on the following assumptions:
(§2) 98 micron PMMA particles (Sapidyne, Cat No. 440198) are coated with biotinylated rhIL-23 according to Sapidyne “Protocol for coating PMMA particles with biotinylated ligands having short or nonexistent linker arms”. To make biotinylated rhIL-23, EZ-link TFP PEO-biotin (Pierce, Cat. No. 21219) is used according to manufacturer's recommendations (Pierce bulletin 0874). Experimental procedures are done according to the KinExA 3000 manual.
(§3) KinExA experiments are performed essentially as described at Example 3 of U.S. Patent Application Publication No. 2007/0048315.

[2] = target: T4, "Elastikine" human IL-23 (single chain …); experiment: cell-based or functional assay
[3] = target: T1, "Non-linked" human IL-23 (human p40 …); experiment: cell-based or functional assay
[4] = target: T2, non-tagged, non-linked native human …; experiment: cell-based or functional assay
[5] = target: T1, "Non-linked" human IL-23 (human p40 …); experiment: KinExA, solution equilibrium
Description: as §1, §2, §3

[6] = target: T2, non-tagged, non-linked native human …; experiment: KinExA, solution equilibrium
Description: as §1, §2, §3

[7] = target: T3, human IL-23 (form not stated); experiment: cell-based or functional assay

Binder	Kd [1]	IC50 (pM), blocking of Ba/F3 cell proliferation [2]	IC50 (pM), blocking of Ba/F3 cell proliferation [3] [pM]	IC50 (pM), blocking of Ba/F3 cell proliferation [4]	Kd [5] [nM]	Kd [6] [nM]	Splenocyte assay IC50 (IL-17 production by mouse splenocytes) [7] [nM]
mouse anti-human IL-23p19 antibody 49A10 (antibody, V domains shown, also called m49A10) VH: EVQLQQSGPELVKPGASVKISCKASGYTFTDYYMNWVKQSHGKSLEWFGDINPNNGDTSYNQKFKGKATLTVDKSSSTAYMELRSLTSEDSADYYCARPHYRNWYFDVWGTGTTVIVSS VL: DIVLTQSPASLVVSLGQRATISCRASKSVSTSGYSFLNWYQQKPGQPPKLLIYLASNLESGVPARFSGSGSGTDFTLNIHPVEAEDATTYYCQHSRELPLTFGSGTKLEMKR	0.0074 nM	–	–	–	–	–	–
mouse anti-human IL-23p19 antibody 39G2 (antibody, V domains shown, also called m39G2) VH: QVQLQQPGAELVRPGASVKLSCKASGYSFTSSWMNWVKQRPGQGLEWIGMIHPSDSETRTNQKFKDKATLTVDKSSSTAYMQLSSPTSEDSAVYYCARGMITAPTVYWGQGTLVTVSA VL: DIVLTQSPASLAVSLGQRATISCRASKSVSTSAYSYFHWYQQKPGQPPKLLIYLASNLESGVPARFSGSGSGTDFTLNIHPVEEEDAATYYCQHSRELPWTFGGGTKLEITP	0.019 nM	9 pM and 5 pM	67	11 pM	0.034	0.62	–
mouse anti-human IL-23p19 antibody 7D7 (antibody, V domains shown, also called m7D7) VH: QVQLQQSGAELAKPGASVKLSCKASGYTFTNYWMDWVKQRPGQGLEWIGYINPSSGYVEYNQKFKYKATLTADKTSSTAYMQLSSLTYDDSAVYYCARSPPYYYANTYWSFDVWGTGTTVTVSS VL: DIGLTQSPASLAVSLGQRATISCRASKSVSTSGYSFMHWYQQKPGQPPKLLIYLASNLESGVPARFSGSGSGTDFILNIHPVEEEDAATYYCQHSRELPLAFGAGTKLELTP	0.0027 nM	–	–	–	–	–	–
mouse anti-human IL-23p19 antibody 35F12 (antibody, V domains shown, also called m35F12) VH: QVQLQQPGAELMRPGASVRLSCKASGYSFTTSWMNWVKQRPGQGLEWIGMIHPSDSETRLNQNFKDKATLTVDRSSSTAYMQLNSPTSEDSAVYYCARGMITAPSVYWGQGTLVTVSA VL: DIVLTQSPASLAVSLGQRATISCRASKSVSTSAYSYFHWYQQKPGQPPKLLIYLASNLESGVPARFSGSGSGTDFTLNIHPVEEGDAATYYCQHSRELPWTFGGGTKLEITR	0.053 nM	15 pM and 5 pM	73	12 pM	–	> 0.7	–
mouse anti-human IL-23p19 antibody 16F7 (antibody, V domains shown) VH: EVQLVESGGDLVKPGGSLKLSCAASGFIFNSYGMSWVRQTPDKRLEWVATISSGGRNTYYPDSVKGRFTISRDNAKNTLYLQMSSLKSEDTAMYYCARQGGYEGYVDVWGIGTTVTVSS VL: DIVMTQSHRFMSTSVGDRVSITCKASQDVSSAVAWYQQKPGQSPNLLIYSASFRNTGVPDRFTGSGSGTDFTFTISGVQAEDLAVYYCQQHHSTPLTFGAGTKLELKR	–	–	141	–	–	–	0.155
mouse anti-human IL-23p19 antibody 14A3 (antibody, V domains shown) VH: EVILVESGGGFVKPGGSLKLSCAASGFTFSNYGMSWVRQTPDKGLEWVATISTGGRYIYYSDTVKGRFTISRDNAKSTLYLKMSSLRSEDTAVHFCARHEGDRYYGWYFDVWGAGTTVTVSS VL: DIVLTQSPASLAVSLGQRATISCKASQSVDYDGESYMNWYQQKPGQPPKLLIYTSSSLASGIPARFSGSGSGTNFTLNIHPVEEEDAATYCCQQGNEDLFTFGSGTKLEIKR	–	–	135	–	–	–	0.053
mouse anti-human IL-23p19 antibody 12C11 (antibody, V domains shown) VH: EVMLVESGGGLVKPGGSLKLSCAASGFTFSNYGMSWVRQSPERGLEWVATISTGGRYTFYSDTVKGRFTISRDNARNTLYLKMSSLISEDTAVHYCARHEGDTYYGWYFDVWGAGTTVTVSS VL: DIVLTQSPASLAVSLGQRATISCKASHSVDYDVDSFMNWYQQKPGQPPKLLIFASSSLESGIPARFSGSGSGTNFILNIHPVEEEDAATYYCQQGNEDLFTFGSGTKLEIKR	–	–	57	–	–	–	0.079
mouse anti-human IL-23p19 antibody 7G10 (antibody, V domains shown) VH: EVQLQQSGPELVKPGASVKMSCKASGYTFTSNVMHWVKQKPGQGLEWIGYINPYNDGTKYNEKFKGKATLTSDKSSSTAYMELSSLTSEDSAVYYCARNWDVAYWGQGTLVTVSA VL: DIVMTQSPATLSVTPGDRVSLSCRASQSISDYLHWYRQKSHESPRLLIKYASQSISGIPSRFSGSGSGSDFTLSINSVEPEDVGVYYCQNGHSFPFTFGSGTKLEIKR	–	22 pM and 18 pM	3000	–	–	–	–
mouse anti-human IL-23p19 antibody 33B12 (antibody, V domains shown, also called m33B12) VH: QVQLQQSGAELARPGASVKLSCKASGYTFTSYSLKWVKQRTGQGLEWIGEIHPRSGNTHYNEKFKGKATLTADKSSSTAYMDLRSLTSEDSAVYFCATNWDLGYWGQGTTITVSS VL: DIVLTQSPATLSVTPGDRVSLSCRASQSISDYLHWFQQRSHESPRLLIKYASQSISGIPSRFSGSGSGSDFTLSINSVEPEDVGVYYCQNGHSFPFTFGSGTKLEIKR	0.0068 nM	4 pM and 3 pM	193	57 pM	–	–	–
mouse anti-human IL-23p19 antibody 13F11 (antibody, V domains shown, also called m13F11) VH: EVQLQQSGPELVKPGASVKMSCKASGHTLTRYLMHWVQQKPGQGLEWIGYINPYNDGTKYNEKFKGKATLTSDKSSSTAYMELSSLTSEDSAVYYCARNWDVAYWGQGTLVTVSA VL: DIVMTQSPATLSVTPGDRVSLSCRASQTISDYLHWYQQKSHESPRLLIKYASQSISGIPSRFSGSGSGSHFTLSINSVEPEDVGVYYCQNGHSFPFTFGSGTKLEIKR	0.011 nM	–	–	–	–	–	–
mouse anti-human IL-23p19 antibody 6H12 (antibody, V domains shown, also called m6H12) VH: EVHLQQSGPELVKPGASVKMSCKASGYTFNRYLIHWVKQKPGQGLEWIGYINPNNDGTNYNEKFKGKATLTSDKSSSTAYMELSSLTSEDSAVYYCAANWDQAYWGQGTLVTVSA VL: DIVMTQSPATLSVTPGDRVSLSCRASQSISDYLHWYQQKSHESPRLLIKYTSQSISGIPSRFSGSGSGSDFTLSINSVEPEDVGVYYCQNGHSFPFTFGSGTKLEIKR	0.054 nM and 0.048 nM	11 pM and 9 pM	1500	1300 pM and 500 pM	> 1.2	> 1	–
mouse anti-human IL-23p19 antibody 13B5 (antibody, V domains shown, also called m13B5) VH: EVQLQQSGPELVKPGASVKMSCKASGYTFTRYLMHWVKQKPGQGLEWIGYINPYNDGTNYNEKFKGKATLTSDKSSSTAYMELSSLTSEDSAVYYCARNWDVGGYWGQGTTLTVSS VL: DIVMTQSPATLSVTPGDRVSLSCRASQSISDYLHWYQQKSHESPRLLIKYASQSISGIPSRFSGSGSGSDFTLSINSVEPEDVGVYYCQNGHSFPFTFGSGTKLEIKR	0.022 nM	7 pM and 5 pM	113	31 pM	–	0.055	–
mouse anti-human IL-23p19 antibody 3D7 (antibody, V domains shown, also called m3D7) VH: QVQLQQSGPELVKPGASVKISCKASGYSFTSYYIHWVKQRPGQGLEWIGWIFPGSGNTKYNEKFKGKATLTADTSSTTAYMQLSSLTSEASAVYFCAREGLHYFGLYAMDYWGHGTSVTVSS VL: DIQMTQTTSSLSASLGDRVTISCSASQGISNYLNWFQQKPDGTVKLLIYYTSSLHSGVPSRFSGSGSGTDYSLTISNLEPEDIATYYCQQYSKLPYTFGGGTKLEIKR	0.00084 nM	3 pM	37	2 pM	–	–	–
